Laboratory results as given in PMC11102864 (Nature Structural & Molecular Biology, 2024).

Target: Arp3 (subunit of the human Arp2/3 complex, activated conformation at the branch) (human, UniProt P61158 1-418)
Experiment: cryo-EM structure; actin branches reconstituted from Arp2/3, VVCA, SPIN90, actin and capping protein, then 1.9 uM full-length cortactin and 10 uM phalloidin; 20 mM HEPES pH 7.5, 50 mM KCl, 1 mM EGTA, 1 mM MgCl2, 0.2 mM ATP, 1 mM DTT; room temperature; overall resolution about 3.3 Å
Settings: both partners purified

B1: Full-length mouse cortactin (natural protein)
chain: not shown
notes: cortactin, mouse, residues 1-546, UniProt Q60598; only residues 21-79 (NtA) and 80-116 (first central repeat) were built in the model; also called full-length cortactin
binding result: binds
